Data published in US20240218057A1 (ROCKEFELLER UNIVERSITY, published 2024).
Residue numbers refer to the chain shown, from its start.

B1: C045 (antibody, V domains shown)
VH: EVQLVESGGGLVQPGGSLRLSCAASGFTFSTYSMNWVRQAPGKGLEWVSYISSSSSTIHYADSVKGRFTISRDNAKNSLYLQMNSLRDEDTAVYYCAREAHDGALTDYGDYLNWFDPWGQGTLVTVSS
VL: SYELTQPPSVSVAPGKTARITCGGTNIGSKNVHWYQQKPGQAPVLVIYYDNDRPSGIPERFSGSNSGNTATLTISRVEAGDEADYYCQVWDTTSDHFYWVFGGGTKLTVL
B2: C062 (antibody, V domains shown)
VH: EVQLVESGGGLVKPGGSLRLTCAASGFTFSTYSMNWVRQAPGKGLEWVSSISSSSSYIYYADSVKGRFTISRDNAKNSLYLQMNSLRAEDTAVYYCARERGYYGGKTPPFLGGQGTLVTVSS
VL: NFMLTQPHSVSESPGKTVTISCTGSSGSIASNYVQWYQQRPGSAPTTVIYEDNQRPSGVPDRFSGSIDSSSNSASLTISGLKTEDEADYYCQSYDSSNYWVFGGGTKLTVL
B3: C518 (antibody, V domains shown)
VH: EVQLVESGGGLIQPGGSLRLSCAASGITVSSNYMSWVRQAPGKGLEWVSVMYAGGSSFYADSVKGRFTISRDNSKNTLYLQMNSLRVEDTAVYYCARDLIALGVDVWGQGTTVTVSS
VL: DIQLTQSPSFLSASVGDRVTITCRASQGISSYLAWYQQKPGKAPKLLIYAASTLQSGVPSRFSGSGSGTEFTLTISSLQPEDFATYYCQLLNSYPMCSFGQGTKLEIK
B4: C051 (antibody, V domains shown)
VH: EVQLVESGGGLIQAGGSLRLSCAASGFGVRNNYMSWVRQAPGKGLEWVSVIYSGGTTYYADSVKGRFTISRDNSKNTVFLQMNSLRAEDTAVYYCAREGDVEGFSDLWSGYSRDRYYFDYWGQGTLVTVSS
VL: QSALTQPASVSGSPGQSITFSCTGTSSDVGGYNYVSWYQQYPGKAPKLLIYDVTNRPSGVSDRFSGSKSGNTASLTISGLQAEDEADYYCSSFTSSNTRVFGTGTKVTVL
B5: C050 (antibody, V domains shown)
VH: EVQLVESGGGLFQPGGSLRLSCAASGFSVRNNYVSWVRQAPGKGLEWVSVIYSGGTTYYADSVKGRFTISRDISENTLYLQMNSLRAEDTAVYYCAREGDVEGLHDFWSGYSRDRYYFDYWGQGTLVTVSS
VL: QSALTQPASVSGSPGQSIIISCTGTSGDIGGYNYVSWYQQHPGKAPKLMIYDVSFRPSGVSNRFSGSKSDNTASLTISGLQAEDEADYYCSSFTGNNTRVFGTGTKVTVL
B6: C053 (antibody, V domains shown)
VH: B5 VH with F12I, S28I, R30S, V34M, E46D, I73N, E75K, L104Y, F107S
VL: QSALTQPASVSGSPGQSITISCTGSSSDVGGYNFVSWYQQHPGRAPKLMIYDVSNRPSGVSNRFSGSKSGNTASLTISGLQVEDEADYYCSSYTNNNTRVFGTGTKVTVL
B7: C054 (antibody, V domains shown)
VH: EVQLVESGGGLIQPGGSLRLSCAASGFTVSNNYMSWVRQAPGKGLEWVSVIYSGGSTYDADSVKGRFTISRDNSKNTLYLQMNSLSAEDTAVYYCAREGDVEGYYDFWSGYSRDRYYFDYWGQGTLVTVSS
VL: B4 VL with F20I, Y41H, L49M, T54S, D62N, F93Y, N97S, T98A
B8: C052 (antibody, V domains shown)
VH: B7 VH with Q13R, T28S, S56T, D59Y, T68N, L78V, S86R, T125A
VL: B6 VL with S25T, F34Y, R44K, V82A, S91N, N95S
B9: C094 (antibody, V domains shown)
VH: QVQLQESGPGLVKPSETLSLTCNVSGVSISTDYWSWIRQPPGKGLEWIGYIYYSGNTKDYNPSLKSRVTISVDTSKNQFSLMLSSVTAADTAVYYCARHYDILTSLSWFDPWGQGTLVTVSS
VL: QSVLTQPPSVSAAPGQKVTISCSITNSNLGNIYVSWYQQLPGTAPKLLIYGNNKRPSGIPDRFSGSKSGTSATLGITGLQTGDEAHYYCGTWDSSLSANWVFGGGTKLTVL
B10: C088 (antibody, V domains shown)
VH: QVQLVQSGAEAKKPGASVKVSCKTSGYTFTNYFMHWVRQAPGQGPEWMGIIDSSDGGASYAQKFQGRVTMTRDTSTSTVYMELRSLKFEDTAVYYCARASTSTTSWSDALSLGSWGQGTLVTVSS
VL: QSVLTQPPSVSGAPGQRVTISCTGSSSNIGGGSVVHWYQQLPGTAPKLLIYANSNRPSGVPDRFSGSKSGTSASLAIAGLQAEDEADYYCQSWDNGLSASGVVFGGGTKLTVL
B11: C080 (antibody, V domains shown)
VH: EVQLVQSGAEVKKPGESLNISCKASGYSFTIYWIAWVRQLPGKGLEWMGIIYPGDSDTRYSPSFQGQVTISADKSISTAYLQWRSLKASDSAVYYCARGVAVDWYFDLWGRGTLVTVSS
VL: QSVLTQPPSVSGAPGQRVTISCAGSSSNIGAGFDVYWYQQLPGTAPKLLIYGNNNRPSGVPDRFSGSKSGTSASLAITGLQAEDEADYYCQSSGSVLSDLYVFGTGTKVTVL
B12: C069 (antibody, V domains shown)
VH: QVQLVQSGAEVKKPGSSVNVSCKASGGTFSTYAIHWVRQAPGQGLEWMGGIIPLFHTANYAQKFQGRVTITADESTSTAYMELSSLRSEDTAMYYCAINTQWDLVPRWGRGTLVTVSS
VL: EIVLTQSPGTLSLAPGERATLSCRASQSVNSNYLAWYQQKPGQAPRLLIYGASSRATGIPDRFSGSGSGTDFTLTISRLEPEDFAVYYCQQYGFSLYSFGQGTKLEIK
B13: C058 (antibody, V domains shown)
VH: QVQLVQSGAEVKKPGASVKVSCKASGYIFTDYSMHWVRQAPGQGLEWIGWVNPNSGGTNYAQKFQGWVTMARDTSITTVYMELSRLKSDDTAVYFCARGPLFHRLVYDFWSGYHDGFDMWGQGTMVTVSS
VL: QSALTQPASVSGSPGQSITISCTGTSSDVGGYKFVSWYQQHPGKAPKLMIYEVSNRPSGVSNRFSGSKSGNTASLTISGLQAEDEADYYCNSYTSSSTWVFGGGTKLTVL
B14: C057 (antibody, V domains shown)
VH: QVQLVQSGAEVKRPGASVKLSCKASGYIFTDYSIHWVRQAPGQGLEWMGWVNPNSGGGNSAQKFMDWVTMARDTSITTVYMELSRLRSDDTAVYYCARGPLFHKLVYDSWSGYHDGFDIWGQGTMVTVSS
VL: B13 VL with G31A, K47Q, M49I, N91S, S95N, S96A, K106E
B15: C059 (antibody)
chain 1: QVQLVQSGAEVKKPGASIKVSCKASGYTFTDYSMHWVRQAPGQGLEWMGWINPNSGGTKYAQKFQGWVTMTRDMSITTVYMELTRLRSDATAVFYCARGPLFHKLVYDSWTGYHDGFDIWGQGTMVTVSS
chain 2: B13 VL with K33N, F34Y, Q40H, H41Y, S54T, N55H, N91S, Y93S, S95N, L107M
B16: C521 (antibody, V domains shown)
VH: EVQLVESGGGLVRPGGSLTLSCVASGFTVGSNFMSWVRQAPGKGLEWVSLIYNSGGTHYADSVKGRFTISRDRSKNTLYLQMNSLRAEDTAIYYCANHGYYYYMDVWGKGTTVTVS
VL: QSALTQPASVSGSPGQSITISCTGTGSDIGAYNYVSWHQHHPGKAPKLIIYDVSNRPSGVSNRFSGSKSGNTASLTISGLQAEDEADYYCTSYTNTTTPWVFGGGTKVTVL
B17: C513 (antibody, V domains shown)
VH: EVQLLESGGGLVQPGGSLRLSCVASGFSFSTYAMSWVRQAPGQGLEWVSTITGTSIGTYYADSVKGRFTISRDNSKNTVFLQMKSLRAEDAAVYYCANHPLASGDEYYYYYMDVWGKGTTVTVSS
VL: EIVLTQSPDTLSLSPGERATLSCRASQSVHSKQLAWYQQKPGQAPRLLIYGASSRATGIPDRFSGSGSGTDFTLTISRLEPEDFAVYYCQQYGSIRALTFGGGTKVEIK
B18: C947 (antibody, V domains shown)
VH: QVQLQESGPGLVRPSGTLSLTCAVTGGSISSSDCWSWVRQPPGKGLEWIGEICHGRTSNYNPSLKSPVSISVDKSKNQFSLILSSVTAADKAVYYCARSSRFLPPLPDAFDLWGQGTMVTVSS
VL: QSVLTQPPSVSGAPGQRVTISCTGSSSNIGAGYDVHWYKQLPGTAPKLLIYGNTNRPSGVPGRFSGSKSGTSASLAITGLQAEDEADYFCQSYDTRLSVVFGGGTKLT
B19: C949 (antibody, V domains shown)
VH: QVQLQESGPGLVKPLQTLSLTCTVSGGSISNGDYYWSWIRQSPGKGLEWIGNIFYSGATYFNPSLKSRVTLSVDTSKNQFSLKLSSVTAADTAVYYCARVVRVLPAASVDCWGQGTLVTVSS
VL: QSALTQPRSVSGSPGQSVPISCTGTSSDVGGYDYVSWYQQHPGKAPKLIIYDVSERPSGVPDRFSGSKSGNTASLTISGLQAEDEATYYCCSYAGTSVMFGGGTKLTVL
B20: C948 (antibody, V domains shown)
VH: EVQLVESGGGLVQPGGSLRLSCAASGFTFSRYDMHWVRQATGKGLEWVSIIGTAGDTYYPGSVKGRFTISRDNAKNSLFLQMNSLRAGDTAVYYCARANYDSSGYHNWFDPWGQGTLVTVSS
VL: DIQMTQSPSSLSASIGDRVTITCRASQNINSYLNWYQQKPGKAPKLLIYAASSLQSGVPSRFSGSGSGTDFTLTINSLQPEDFATYYCQQSYSMPSWTFGQGTKVEI
B21: C944 (antibody, V domains shown)
VH: QVQLVESGGGVVQPGRSLRLSCAASGFTFSSYGMHWVRQAPGKGLEWVAVISYDGSYKYYADSVKGRFTISRDNSKNTLYLQMNSLRAEDTAVYYCAKGSGSQLYYYYGMDVWGQGTTVTVSS
VL: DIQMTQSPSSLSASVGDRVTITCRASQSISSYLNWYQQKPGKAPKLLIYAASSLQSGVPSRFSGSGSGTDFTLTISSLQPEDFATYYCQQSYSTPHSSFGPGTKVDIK
B22: C943 (antibody, V domains shown)
VH: QVQLVESGGGVVQPGRSLRLSCAASGFPFSSFGMHWVRQAPGRGLEWVALILYDGDNKYYADSVKGRFTISRDNSKNTLYLQMNSLRAEDTAVYYCAKDIGGGSSPPFFDYWGQGTLVTVSS
VL: SYELTQAPSVSLAPGKTARITCGENNIGSKSVHWYQQKPGQAPVLVIYYDSDRPSGIPERFSGSNSGNTATLTISRVEAGDEADYYCQVWDSSSDHVMFGGGTKLTVL
B23: C945 (antibody, V domains shown)
VH: QVQLVQSGAEVKKPGASVRISCKASGYTFTNYYMHWVRQAPGQGLEWMGIINPSGGSTTYAPKFQARVTMTRDTSTSTVYMELSSLRSDDTAVYYCARDYVLVPARSGMDVWGQGTTVTVS
VL: EIVLTQSPATLSLSPGERATLSCRASQSVSSYLAWYQQKPGQAPRLLIYDASNRATGIPARFSGSGSGTDFTLTISSLEPEDFAIYYCQQRSNWPYTFGQGTKLEIK
B24: C946 (antibody, V domains shown)
VH: QVQLVQSGAEVKKPGASVKVSCKASGYTFTNYYIHWVRQAPGQGLEWMGIINPDGDSTSYVQKFQGRVTMTRDTSTSTVYMELSSLRSEDTAVYYCARDLVFVPATSAMDVWGKGTTVTVSS
VL: B23 VL with I85V, P95L, Y96F, Q100P, L104V, E105D

Each binder was assayed against SARS-COV-2 RBD (SARS-COV-2, UniProt P0DTC2 319-539) (assay: ELISA, RBD coated).

Point of comparison: B1, EC50 7 ng/mL. Against it:
- B2 — within 1.5-fold, 4.69 ng/mL
- B3 — 6.2-fold lower, 1.13 ng/mL
- B4 — 4.2-fold lower, 1.65 ng/mL
- B5 — 28-fold higher, 193 ng/mL
- B6 — 4.6-fold lower, 1.53 ng/mL
- B7 — 4.4-fold lower, 1.58 ng/mL
- B8 — 5.7-fold lower, 1.23 ng/mL
- B9 — 4.2-fold lower, 1.67 ng/mL
- B10 — 2.9-fold lower, 2.44 ng/mL
- B11 — 3.6-fold lower, 1.97 ng/mL
- B12 — 54-fold higher, 381 ng/mL
- B13 — 3.1-fold lower, 2.28 ng/mL
- B14 — 3-fold lower, 2.31 ng/mL
- B15 — 3.7-fold lower, 1.88 ng/mL
- B16 — within 1.5-fold, 6.9 ng/mL
- B17 — 5.3-fold lower, 1.31 ng/mL

The binders below were run against T1, SARS-COV-2 RBD (SARS-COV-2, UniProt P0DTC2 319-539) (assay: ELISA, RBD coated on plate).
T1 construct: also called WT RBD

Point of comparison: B18, EC50 2.08 ng/mL. Against it:
- B19 — within 1.5-fold, 2.33 ng/mL
- B20 — 1.6-fold higher, 3.26 ng/mL
- B21 — within 1.5-fold, 1.71 ng/mL
- B22 — within 1.5-fold, 2.59 ng/mL
- B23 — 1.5-fold higher, 3.13 ng/mL
- B24 — 1.8-fold higher, 3.82 ng/mL
